Results: paper PMC11162772, “FUS reads histone H3K36me3 to regulate alternative polyadenylation”

Key:
FUS-ΔZNF = FUS-ΔZNF (UniProt P35637 1-421+454-526, internal_change); test: MST; no significant decrease vs WT; MST: PBS with 0.05% BSA and 0.05% Tween-20, 5 nM Cy5-RNA, temperature not stated; nucleosome pull-down buffer not given; settings: protein: recombinant; tags: GST (pGEX-6p-2); label: 3' Cy5
[1] = target: FUS P421L (so in the source) (UniProt P35637 1-526, P431L); test: MST; slightly increased affinity vs WT; MST: PBS with 0.05% BSA and 0.05% Tween-20, 5 nM Cy5-RNA, temperature not stated; nucleosome pull-down buffer not given; settings: protein: recombinant; tags: GST (pGEX-6p-2); label: 3' Cy5
Chain of FUS P421L (so in the source) (P35637 whole entry P431L): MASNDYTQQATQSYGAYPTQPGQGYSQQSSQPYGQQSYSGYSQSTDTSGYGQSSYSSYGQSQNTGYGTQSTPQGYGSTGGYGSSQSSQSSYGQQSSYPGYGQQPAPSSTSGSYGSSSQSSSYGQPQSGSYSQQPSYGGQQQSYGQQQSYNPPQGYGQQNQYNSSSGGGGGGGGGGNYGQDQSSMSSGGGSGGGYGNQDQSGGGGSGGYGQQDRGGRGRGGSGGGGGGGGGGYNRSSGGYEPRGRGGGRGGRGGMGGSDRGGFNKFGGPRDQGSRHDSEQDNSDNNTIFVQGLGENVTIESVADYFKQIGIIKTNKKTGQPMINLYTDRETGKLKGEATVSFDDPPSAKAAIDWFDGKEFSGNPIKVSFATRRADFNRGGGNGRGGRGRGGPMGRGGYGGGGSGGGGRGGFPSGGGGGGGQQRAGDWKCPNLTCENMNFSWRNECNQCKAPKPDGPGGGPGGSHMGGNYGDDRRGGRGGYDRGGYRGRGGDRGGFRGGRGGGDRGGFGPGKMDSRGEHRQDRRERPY

Chain of FUS-ΔZNF (P35637 other isoform, or with tags, fused parts or gaps | mutant): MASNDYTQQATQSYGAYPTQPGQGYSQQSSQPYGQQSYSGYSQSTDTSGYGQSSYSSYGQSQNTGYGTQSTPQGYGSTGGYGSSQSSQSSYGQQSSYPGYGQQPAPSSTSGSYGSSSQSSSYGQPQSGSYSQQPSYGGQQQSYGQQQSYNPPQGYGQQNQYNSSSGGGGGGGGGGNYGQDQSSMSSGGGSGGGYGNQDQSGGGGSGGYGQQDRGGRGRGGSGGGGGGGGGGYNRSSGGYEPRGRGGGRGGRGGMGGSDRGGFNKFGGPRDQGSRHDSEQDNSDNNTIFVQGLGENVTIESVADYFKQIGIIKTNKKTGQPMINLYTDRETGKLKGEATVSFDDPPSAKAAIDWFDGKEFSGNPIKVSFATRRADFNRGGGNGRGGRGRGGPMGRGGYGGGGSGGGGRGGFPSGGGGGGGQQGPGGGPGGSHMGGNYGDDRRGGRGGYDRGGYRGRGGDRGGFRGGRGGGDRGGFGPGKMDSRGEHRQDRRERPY

| Binder | binding result (FUS-ΔZNF) | binding result [1] |
| --- | --- | --- |
| UUAGGGUUAGGGUUAGGGUUAGGG (ssRNA) [4XUUAGGG-3'Cy5] | binds |  |
| GGUGGGUGGGUGGGUGGGUG (ssRNA) [5XGGUG-3'Cy5] | binds | binds |
